The target of assay [1] is NICOL (Mus musculus) (UniProt Q3UR78). Particulars: cited from earlier work.
The target in assay [2] is T1, C-terminally 6×His-tagged recombinant human NELL2 protein (human, UniProt Q99435 22-816).
T1 construct: Neural EGF-like like 2 (NELL2), human; also called Neural EGF-like like 2
T1 sequence (looked up): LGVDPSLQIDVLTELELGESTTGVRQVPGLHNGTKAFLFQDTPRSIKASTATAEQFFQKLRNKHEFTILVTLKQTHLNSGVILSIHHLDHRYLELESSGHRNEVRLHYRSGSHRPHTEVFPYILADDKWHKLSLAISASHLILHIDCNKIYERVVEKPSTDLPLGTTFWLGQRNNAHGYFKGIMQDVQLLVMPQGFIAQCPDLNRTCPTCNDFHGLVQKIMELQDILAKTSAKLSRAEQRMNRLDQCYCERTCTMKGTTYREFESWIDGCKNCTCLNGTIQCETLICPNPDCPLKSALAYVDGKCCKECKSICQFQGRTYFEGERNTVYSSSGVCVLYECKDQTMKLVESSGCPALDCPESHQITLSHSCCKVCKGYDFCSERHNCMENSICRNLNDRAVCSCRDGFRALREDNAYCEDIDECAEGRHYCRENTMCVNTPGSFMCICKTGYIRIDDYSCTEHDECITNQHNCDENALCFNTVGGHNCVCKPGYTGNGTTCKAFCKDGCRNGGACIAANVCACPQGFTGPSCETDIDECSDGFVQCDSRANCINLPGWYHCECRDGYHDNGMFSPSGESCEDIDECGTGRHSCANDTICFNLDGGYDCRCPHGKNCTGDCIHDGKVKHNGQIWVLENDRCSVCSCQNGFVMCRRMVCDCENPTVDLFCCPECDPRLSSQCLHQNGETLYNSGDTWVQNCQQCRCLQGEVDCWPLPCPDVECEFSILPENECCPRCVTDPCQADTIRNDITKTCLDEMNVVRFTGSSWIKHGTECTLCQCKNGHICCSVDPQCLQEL
Nature of the assay: SPR; purified human NELL2 immobilised on a series S sensor chip CM5 as ligand; purified human NICOL in PBS as analyte at increasing concentration; Biacore T200. The settings on record: both partners purified.

Sequence of NICOL (Mus musculus) (Q3UR78 29-90): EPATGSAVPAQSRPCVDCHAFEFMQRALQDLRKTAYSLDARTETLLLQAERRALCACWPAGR

As usually defined, the Kd is the free concentration of one partner at which half of the binding sites on the other are occupied at equilibrium, for simple one-to-one binding. NELL2 (from UniProt Q61220): the Kd in assay [1] was 87 nM.

B1: C-terminally 6×His-tagged human NICOL protein (ligand, UniProt Q5BLP8 35-95, looked up)
chain: EPAGSAVPAQSRPCVDCHAFEFMQRALQDLRKTACSLDARTETLLLQAERRALCACWPAGH
notes: also called C4orf48
Broadly, the koff is the rate constant with which the complex falls apart. A word on the kon: it is the rate constant with which the complex forms. For B1, in assay [2], the Kd turned out to be 110 nM, the koff turned out to be 0.00098 s⁻¹ and the kon came to 9100 M⁻¹ s⁻¹.
